In the experiment the target is recombinant MBP-EDIII of DENV2 (Dengue virus 2 (strain Thailand/16681/84)). In words: SPR. Background: In SPR one partner is held on a chip, and binding of the other changes the refractive index at the surface.
On to 1A1D-2 Fab A54E-Y105R double mutant, for which the dissociation constant (Kd) (usually the equilibrium constant for the complex coming apart) came out at 12.3 nM; the koff (as a rule, a measure of how fast the partners let go of each other) turned out to be 0.00274 s⁻¹; the kon (commonly a measure of how fast the partners come together) stood at 222000 M⁻¹ s⁻¹.
With 1A1D-2 Fab A54E.H, the Kd came to 41.9 nM, the off-rate (koff) was determined as 0.00822 s⁻¹ and the kon amounted to 197000 M⁻¹ s⁻¹.
In the case of 1A1D-2 Fab Y105R.H, the Kd was determined as 203 nM, the off-rate (koff) stood at 0.0195 s⁻¹ and the on-rate (kon) stood at 96200 M⁻¹ s⁻¹.

The values are drawn from paper PMC9027083.
